The text below walks through data of publication PMC2933787.

Holding throughout (assay): EMSA
In one series the target is T1, DmTHAP R66A (Drosophila melanogaster, UniProt Q7M3K2 1-77, R66A).
T1 sequence: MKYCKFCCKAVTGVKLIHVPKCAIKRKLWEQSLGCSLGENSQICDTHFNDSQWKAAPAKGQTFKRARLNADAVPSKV

A further series deals with T2, DmTHAP dY2,K3 (Drosophila melanogaster, UniProt Q7M3K2 1-77, del2-3).
T2 sequence: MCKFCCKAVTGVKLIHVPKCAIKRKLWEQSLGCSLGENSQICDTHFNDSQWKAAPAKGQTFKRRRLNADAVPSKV

For a further series, the target named is T3, DmTHAP Q42A (Drosophila melanogaster, UniProt Q7M3K2 1-77, Q42A).
T3 sequence: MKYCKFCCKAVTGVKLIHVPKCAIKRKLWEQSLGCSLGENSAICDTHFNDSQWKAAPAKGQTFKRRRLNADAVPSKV

The next series addresses T4, DmTHAP H18A (Drosophila melanogaster, UniProt Q7M3K2 1-77, H18A).
T4 sequence: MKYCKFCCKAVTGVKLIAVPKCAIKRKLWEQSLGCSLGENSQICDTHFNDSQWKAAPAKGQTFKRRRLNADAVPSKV

A further series deals with T5, DmTHAP H18A Q42A (Drosophila melanogaster, UniProt Q7M3K2 1-77, H18A;Q42A).
T5 sequence: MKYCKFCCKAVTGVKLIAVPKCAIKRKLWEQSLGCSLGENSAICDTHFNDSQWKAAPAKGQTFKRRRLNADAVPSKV

The target in a further series is T6, DmTHAP R65A (Drosophila melanogaster, UniProt Q7M3K2 1-77, R65A).
T6 sequence: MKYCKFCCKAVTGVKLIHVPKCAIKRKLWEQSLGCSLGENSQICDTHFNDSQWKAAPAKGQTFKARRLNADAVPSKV

The next series deals with T7, DmTHAP R65A R67A (Drosophila melanogaster, UniProt Q7M3K2 1-77, R65A;R67A).
T7 sequence: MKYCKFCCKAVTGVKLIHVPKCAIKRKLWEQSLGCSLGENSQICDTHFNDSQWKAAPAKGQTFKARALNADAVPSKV

Another series deals with T8, DmTHAP R67A (Drosophila melanogaster, UniProt Q7M3K2 1-77, R67A).
T8 sequence: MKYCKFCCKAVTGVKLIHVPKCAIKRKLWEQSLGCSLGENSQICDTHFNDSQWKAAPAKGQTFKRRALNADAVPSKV

For series [1], the target named is T9, DmTHAP (P element transposase THAP domain) (Drosophila melanogaster, UniProt Q7M3K2 1-77).
T9 sequence: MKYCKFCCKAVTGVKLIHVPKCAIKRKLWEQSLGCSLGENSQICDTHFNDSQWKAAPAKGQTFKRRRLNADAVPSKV

B1: 15mer duplex with transposase site (dsDNA)
DNA 1: GAGGTTAAGTGGATGT
DNA 2: TACATCCACTTAAC
In the case of B1, the binding result in the series with DmTHAP R66A was “no binding”. Further, the binding signal with DmTHAP dY2,K3 is ~3 fold reduction in affinity vs WT; with DmTHAP Q42A, ~15 fold reduction in affinity vs WT; in the series with DmTHAP H18A, ~12 fold reduction in affinity vs WT; with DmTHAP H18A Q42A, ~20 fold reduction in affinity vs WT; in the series with DmTHAP R65A it was ~21 fold reduction in affinity vs WT; with DmTHAP R65A R67A, ~42 fold reduction in affinity vs WT. The binding signal with DmTHAP R67A was ~17 fold reduction in affinity vs WT; in series [1], 1 fold reduction in affinity vs WT (reference).
